System: Escherichia coli TOP10
Experiment: shrunken log2 fold change of peptide-encoding DNA abundance (4.5 h post-induction vs induction); higher = less antimicrobial activity (less host growth inhibition)
Conditions: time post-induction: 4.5 h; library: site-saturation at positions 5, 18, 19, 20
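Note: peptides expressed intracellularly from a pBAD plasmid library in pooled LB shake-flask culture, induced with 0.3% L-arabinose, DNA abundance read by NGS, three biological replicates, DESeq2 with apeglm shrinkage.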

Row | Sequence | shrunken log2 fold change
1 | RRIRCRPPRLPRPRPRPNPAPRP | 0.101
2 | RRIRHRPPRLPRPRPRPIMYPRP | -0.169
3 | RRIRIRPPRLPRPRPRPGTCPRP | -0.188
4 | RRIRCRPPRLPRPRPRPMAYPRP | -0.00456
5 | RRIRGRPPRLPRPRPRPNYHPRP | -0.179
6 | RRIRFRPPRLPRPRPRPYYPPRP | -1.19
7 | RRIRDRPPRLPRPRPRPVSTPRP | 0.0725
8 | RRIRYRPPRLPRPRPRPLLIPRP | -0.798
9 | RRIRRRPPRLPRPRPRPSAIPRP | 0.0689
10 | RRIRTRPPRLPRPRPRPVRDPRP | 0.543
11 | RRIRIRPPRLPRPRPRPYRWPRP | 0.0522
12 | RRIRPRPPRLPRPRPRPLNEPRP | -0.348
13 | RRIRSRPPRLPRPRPRPYWCPRP | -0.161
14 | RRIRLRPPRLPRPRPRPSMEPRP | -0.371
15 | RRIRVRPPRLPRPRPRPSFSPRP | -0.498
16 | RRIRERPPRLPRPRPRPDGIPRP | -0.00168
17 | RRIRNRPPRLPRPRPRPKNEPRP | -0.0366
18 | RRIRWRPPRLPRPRPRPKTRPRP | 0.654
19 | RRIRQRPPRLPRPRPRPMCLPRP | -0.184
20 | RRIRYRPPRLPRPRPRPDLFPRP | 0.108
21 | RRIRRRPPRLPRPRPRPSFLPRP | -0.268
22 | RRIRARPPRLPRPRPRPHAWPRP | 0.375
23 | RRIRNRPPRLPRPRPRPLSNPRP | -0.386
24 | RRIRDRPPRLPRPRPRPMREPRP | -0.0167
25 | RRIRTRPPRLPRPRPRPMWTPRP | -0.00193

Row | Sequence | shrunken log2 fold change
26 | RRIRYRPPRLPRPRPRPNTEPRP | -0.0461
27 | RRIRGRPPRLPRPRPRPMWGPRP | -0.0435
28 | RRIRQRPPRLPRPRPRPYWLPRP | -0.307
29 | RRIRARPPRLPRPRPRPSYRPRP | -0.228
30 | RRIRQRPPRLPRPRPRPNDHPRP | -0.884
31 | RRIRFRPPRLPRPRPRPHYQPRP | -0.0104
32 | RRIRSRPPRLPRPRPRPPFEPRP | 0.518
33 | RRIRQRPPRLPRPRPRPNSVPRP | -0.265
34 | RRIRERPPRLPRPRPRPRFWPRP | 0.549
35 | RRIRARPPRLPRPRPRPILQPRP | 0.0186
36 | RRIRRRPPRLPRPRPRPDWVPRP | 0.037
37 | RRIRHRPPRLPRPRPRPYCIPRP | -0.21
38 | RRIRSRPPRLPRPRPRPDHVPRP | -0.0207
39 | RRIRVRPPRLPRPRPRPTRLPRP | 0.568
40 | RRIRRRPPRLPRPRPRPNMDPRP | -0.442
41 | RRIRIRPPRLPRPRPRPGYTPRP | -0.206
42 | RRIRERPPRLPRPRPRPTNSPRP | -0.782
43 | RRIRHRPPRLPRPRPRPINKPRP | -0.652
44 | RRIRHRPPRLPRPRPRPSFDPRP | -0.429
45 | RRIRIRPPRLPRPRPRPHESPRP | 0.0539
46 | RRIRWRPPRLPRPRPRPPGIPRP | 0.41
47 | RRIRQRPPRLPRPRPRPAISPRP | -0.292
48 | RRIRFRPPRLPRPRPRPRLGPRP | 0.347
49 | RRIRERPPRLPRPRPRPHYFPRP | -0.658
50 | RRIRWRPPRLPRPRPRPVLYPRP | 0.0298

Row | Sequence | shrunken log2 fold change
51 | RRIRSRPPRLPRPRPRPDHDPRP | -0.357
52 | RRIRIRPPRLPRPRPRPPLNPRP | -0.227
53 | RRIRQRPPRLPRPRPRPLKNPRP | -0.237
54 | RRIRWRPPRLPRPRPRPPQYPRP | 0.0672
55 | RRIRRRPPRLPRPRPRPLPQPRP | 0.436
56 | RRIRERPPRLPRPRPRPHRHPRP | -0.18
57 | RRIRRRPPRLPRPRPRPVNKPRP | 0.169
58 | RRIRRRPPRLPRPRPRPKEVPRP | 0.195
59 | RRIRYRPPRLPRPRPRPVKAPRP | -0.0854
60 | RRIRFRPPRLPRPRPRPTDDPRP | -0.019
61 | RRIRYRPPRLPRPRPRPEFYPRP | -0.316
62 | RRIRKRPPRLPRPRPRPAVLPRP | -0.025
63 | RRIRPRPPRLPRPRPRPHPIPRP | 0.0162
64 | RRIRKRPPRLPRPRPRPKMLPRP | 0.185
65 | RRIRNRPPRLPRPRPRPKYEPRP | -0.167
66 | RRIRDRPPRLPRPRPRPILCPRP | 0.0322
67 | RRIRWRPPRLPRPRPRPTFNPRP | 0.00157
68 | RRIRDRPPRLPRPRPRPNNNPRP | -0.667
69 | RRIRERPPRLPRPRPRPLRGPRP | 0.529
70 | RRIRDRPPRLPRPRPRPGPNPRP | 0.0518
71 | RRIRERPPRLPRPRPRPVLYPRP | -0.00668
72 | RRIRKRPPRLPRPRPRPARDPRP | 1.1
73 | RRIRKRPPRLPRPRPRPSLAPRP | 0.614
74 | RRIRWRPPRLPRPRPRPILKPRP | -0.281
75 | RRIRVRPPRLPRPRPRPKLNPRP | -0.212

Row | Sequence | shrunken log2 fold change
76 | RRIRKRPPRLPRPRPRPFATPRP | 0.45
77 | RRIRARPPRLPRPRPRPCRLPRP | -0.0461
78 | RRIRTRPPRLPRPRPRPPMYPRP | -0.406
79 | RRIRNRPPRLPRPRPRPKFFPRP | -0.298
80 | RRIRPRPPRLPRPRPRPSHIPRP | -0.505
81 | RRIRNRPPRLPRPRPRPDTGPRP | -0.0135
82 | RRIRHRPPRLPRPRPRPPPRPRP | 1.25
83 | RRIRVRPPRLPRPRPRPITTPRP | -0.304
84 | RRIRYRPPRLPRPRPRPFSKPRP | -0.107
85 | RRIRTRPPRLPRPRPRPPVLPRP | 0.0185
86 | RRIRGRPPRLPRPRPRPQQLPRP | 0.487
87 | RRIRKRPPRLPRPRPRPSTCPRP | -0.0517
88 | RRIRSRPPRLPRPRPRPHGGPRP | 0.103
89 | RRIRDRPPRLPRPRPRPNQWPRP | 0.151
90 | RRIRWRPPRLPRPRPRPLAQPRP | 0.469
91 | RRIRHRPPRLPRPRPRPCEAPRP | -0.136
92 | RRIRDRPPRLPRPRPRPCQHPRP | -0.276
93 | RRIRWRPPRLPRPRPRPGYWPRP | -0.00394
94 | RRIRDRPPRLPRPRPRPEQTPRP | 0.0162
95 | RRIRDRPPRLPRPRPRPEDPPRP | 0.439
96 | RRIRFRPPRLPRPRPRPSHPPRP | -0.19
97 | RRIRRRPPRLPRPRPRPNTKPRP | 0.191
98 | RRIRFRPPRLPRPRPRPNALPRP | -0.347
99 | RRIRDRPPRLPRPRPRPSNNPRP | -0.487
100 | RRIRTRPPRLPRPRPRPETTPRP | 0.285

Row | Sequence | shrunken log2 fold change
101 | RRIRCRPPRLPRPRPRPNITPRP | -0.884
102 | RRIRIRPPRLPRPRPRPAWPPRP | 0.339
103 | RRIRFRPPRLPRPRPRPMTTPRP | 0.000405
104 | RRIRDRPPRLPRPRPRPASDPRP | 0.0114
105 | RRIRSRPPRLPRPRPRPLWIPRP | -0.497
106 | RRIRCRPPRLPRPRPRPFGLPRP | -0.0423
107 | RRIRHRPPRLPRPRPRPRMVPRP | -0.0236
108 | RRIRKRPPRLPRPRPRPGEDPRP | 0.0621
109 | RRIRYRPPRLPRPRPRPVYHPRP | -0.586
110 | RRIRERPPRLPRPRPRPMDVPRP | -0.0821
111 | RRIRCRPPRLPRPRPRPCEQPRP | -0.222
112 | RRIRSRPPRLPRPRPRPDCEPRP | 0.259
113 | RRIRARPPRLPRPRPRPVGRPRP | 0.691
114 | RRIRFRPPRLPRPRPRPRFCPRP | 0.00666
115 | RRIRQRPPRLPRPRPRPNSKPRP | -0.429
116 | RRIRVRPPRLPRPRPRPHNRPRP | -0.241
117 | RRIRSRPPRLPRPRPRPRAQPRP | 0.106
118 | RRIRSRPPRLPRPRPRPMWHPRP | -0.332
119 | RRIRSRPPRLPRPRPRPTLYPRP | 0.0585
120 | RRIRERPPRLPRPRPRPGTDPRP | 8.37e-05
121 | RRIRERPPRLPRPRPRPWNCPRP | -0.327
122 | RRIRIRPPRLPRPRPRPKVKPRP | -0.127
123 | RRIRMRPPRLPRPRPRPIQKPRP | 0.0394
124 | RRIRARPPRLPRPRPRPSYLPRP | -0.716
125 | RRIRYRPPRLPRPRPRPYHQPRP | -0.662

Row | Sequence | shrunken log2 fold change
126 | RRIRGRPPRLPRPRPRPQGHPRP | 0.278
127 | RRIRRRPPRLPRPRPRPGKSPRP | 0.0256
128 | RRIRVRPPRLPRPRPRPPQQPRP | 0.575
129 | RRIRFRPPRLPRPRPRPRSNPRP | -0.336
130 | RRIRRRPPRLPRPRPRPSAMPRP | 0.378
131 | RRIRSRPPRLPRPRPRPNRSPRP | -0.0737
132 | RRIRFRPPRLPRPRPRPQVWPRP | 0.135
133 | RRIRFRPPRLPRPRPRPNEFPRP | -0.0262
134 | RRIRCRPPRLPRPRPRPRGGPRP | 0.508
135 | RRIRYRPPRLPRPRPRPFPHPRP | -0.137
136 | RRIRKRPPRLPRPRPRPMKRPRP | 0.138
137 | RRIRARPPRLPRPRPRPDGYPRP | 0.647
138 | RRIRKRPPRLPRPRPRPMMTPRP | 0.452
139 | RRIRCRPPRLPRPRPRPQISPRP | -0.785
140 | RRIRGRPPRLPRPRPRPTDEPRP | 0.573
141 | RRIRFRPPRLPRPRPRPLPKPRP | 0.55
142 | RRIRCRPPRLPRPRPRPRICPRP | 0.183
143 | RRIRRRPPRLPRPRPRPVAAPRP | 1.42
144 | RRIRYRPPRLPRPRPRPPMIPRP | -1.39
145 | RRIRMRPPRLPRPRPRPLFCPRP | 0.188
146 | RRIRHRPPRLPRPRPRPAMTPRP | -0.00367
147 | RRIRRRPPRLPRPRPRPKGEPRP | 0.0115
148 | RRIRLRPPRLPRPRPRPGSMPRP | -0.192
149 | RRIRMRPPRLPRPRPRPAMLPRP | 1.22
150 | RRIRLRPPRLPRPRPRPQPDPRP | -0.161
